Legend:
β-arrestin1-YFP = β-arrestin1-YFP (UniProt P49407); test: BRET (PAR2-Rluc8 / β-arrestin1-YFP) in cells; conditions: read off a plot

Row | Molecule | response (ligand induced ΔBRET) (β-arrestin1-YFP; cells stimulated with GzmK (concentration not given for panel D), parent: est. 0.027) | response (ligand induced ΔBRET) (β-arrestin1-YFP; cells treated with GzmK-AI (inactive GzmK; concentration not given for panel D), parent: est. -0.001) | cleavage product as percent of total peptide by HPLC after 15 h with granzyme (PAR2 peptide 10 (human))
1 | PAR2-Rluc8 (protease-activated receptor 2 fused to Renilla luciferase 8), uncleaved as expressed (from UniProt P55085) Arg36Ala | 0.0038 | -0.0015 | 
2 | Granzyme K (enzyme) IIGGKEVSPHSRPFMASIQYGGHHVCGGVLIDPQWVLTAAHCQYRFTKGQSPTVVLGAHSLSKNEASKQTLEIKKFIPFSRVTSDPQSNDIMLVKLQTAAKLNKHVKMLHIRSKTSLRSGTKCKVTGWGATDPDSLRPSDTLREVTVTVLSRKLCNSQSYYNGDPFITKDMVCAGDAKGQKDSCKGDSGGPLICKGVFHAIVSGGHECGVATKPGIYTLLTKKYQTWIKSNLVPPHTN |  |  | 53 % of total
3 | Granzyme A (enzyme) IIGGNEVTPHSRPYMVLLSLDRKTICAGALIAKDWVLTAAHCNLNKRSQVILGAHSITREEPTKQIMLVKKEFPYPCYDPATREGDLKLLQLMEKAKINKYVTILHLPKKGDDVKPGTMCQVAGWGRTHNSASWSDTLREVNITIIDRKVCNDRNHYNFNPVIGMNMVCAGSLRGGRDSCNGDSGSPLLCEGVFRGVTSFGLENKCGDPRGPGVYILLSKKHLNWIIMTIKGAV |  |  | 6.6 % of total

Source: PMC9321427
